The assay in a line: SPR affinity of His-tagged PikAIII ACPdd for nickel-NTA sensor chip. The format is binding. To be noted: BIAcore 3000, nickel-loaded NTA sensor chip, HBS-P+E pH 7.4. On the technique in general: Surface plasmon resonance follows binding to a sensor surface in real time, without labels.

B1: His-tagged PikAIII ACPdd: C-terminal (ACP-side) docking domain of PikAIII, pikromycin PKS (protein)
chain: LAPAEPAPTDWEGRVRRALAELPLDRLRDAGVLDTVLRLTGIEPEPGSGGSDGGAADPGAEPEASIDDLDAEALIRMALGPRNT
modifications: left off: His6, N-terminal, kept
What is called Kd is the free concentration of one partner at which half of the binding sites on the other are occupied at equilibrium, for simple one-to-one binding. In turn, B1 gave a Kd of 4 ± 0.04 nM.

Source of the values: article PMC2853223 (ACS chemical biology, 2009).
